What was measured:
Assay in all cases: SPR, calculated KD (Qdat software)
[1] = molecular target: Aβ42 oligomers (ADDLs/globulomers) (UniProt P05067)
[2] = molecular target: C-terminal biotinylated Aβ42 ADDLs/globulomers (UniProt P05067)
[3] = molecular target: N-terminal biotinylated Aβ42 monomers (UniProt P05067)
Aβ42 fibrils = Aβ42 fibrils (UniProt P05067)
[4] = molecular target: C-terminal biotinylated Aβ42 monomers (UniProt P05067)
Chain of C-terminal biotinylated Aβ42 monomers (P05067 672-713 limits assumed): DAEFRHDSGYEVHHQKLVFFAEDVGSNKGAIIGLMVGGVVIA

Chain of Aβ42 oligomers (ADDLs/globulomers) (P05067 672-713 limits assumed): as above
Chain of Aβ42 fibrils (P05067 672-713 limits assumed): as above
Chain of C-terminal biotinylated Aβ42 ADDLs/globulomers (P05067 672-713 limits assumed): as above
Chain of N-terminal biotinylated Aβ42 monomers (P05067 672-713 limits assumed): as above

Work on “6E10 (mouse mAb to Aβ amino acids 1-16; BioLegend, San Diego, CA) (antibody)” yielded a Kd [1] of 69 nM, a Kd [2] of 50 nM and a Kd [3] of 158 nM. It also gave a Kd (Aβ42 fibrils) of 56 nM and a Kd [4] of 47 nM.

— patent publication US20220227846A1
